Laboratory results taken from patent publication US20240368289A1 (LAEKNA THERAPEUTICS SHANGHAI, published 2024).

Columns and labels:
[1] = target: T1, recombinant protein comprising the human ACVR2A extracellular domain (ECD) fused to the human IgG1 Fc region (human, UniProt P27037 20-135); experiment: SPR, Biacore 3000 (1st test); ACVR2A-Fc captured by anti-human Fc, Fab injected
T1 construct: extracellular domain; also called ACVR2A-Fc; ACVR2A-FC; not shown: human IgG1 Fc region
Text: (§1) 2.2 Surface Plasmon resonance (SPR) measurements and affinity analysis by anti-human Fc capture format. After affinity panning, output-3 (03) of CDRH1 library were screened for binding ability by Fab ELISA and followed by NGS DNA sequencing. Based on binding Elisa and sequence abundance from NGS data, 11 clones were select for SPR analysis. Approximately 100-800 resonance units (RU) of antigen ACVR2A, was captured by anti-human Fc immobilized on a channel of a CM5 chip with an activated amine group. After immobilization, Fab antibodies were injected into the channels at 25° C. in HBS-EP buffer, with a flow rate of 30 μL/min, 1 min. When the data collection was finished in each cycle, the sensor surface was regenerated using 80 mM NaOH with a flow rate of 30 μL/min, 15 sec and reused chip in next cycle. After subtraction of reference surface and buffer injection, curve was locally fitted with BIA evaluation version 4.1 using a 1:1 Langmuir binding mode.
(§2) The affinity of selected 11 anti-ACVR2A monoclonal antibody clones were determined on Biacore®3000 and Biacore®8000 as shown in Table 4 below.

[2] = target: T1, recombinant protein comprising the …; experiment: SPR, Biacore 8000 (2nd test); ACVR2A-Fc captured by anti-human Fc, Fab injected
Text: as §1, §2

[3] = target: T1, recombinant protein comprising the …; experiment: SPR, Biacore 3000 (1st test); ACVR2A-Fc captured by anti-human Fc, Fab injected; 1st test (Biacore 3000)
Text: as §1, §2

T1 sequence (P27037 20-135): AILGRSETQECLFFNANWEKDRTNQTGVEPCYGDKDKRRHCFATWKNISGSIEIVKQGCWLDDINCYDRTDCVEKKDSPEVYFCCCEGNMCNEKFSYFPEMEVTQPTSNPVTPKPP

B1: clone A (Fab) (Fab, V domains shown)
VH: QVQLVQSGAEVKKPGSSVKVSCKASGGQFYHSRISWVRQAPGQGLEWMGGIIPIYGTANYAQKFQGRVTITADESTSTAYMELSSLRSEDTAVYYCVKDLTWTNLGLDIWGQGTMVTVSS
VL: EIVMTQSPSSLSASVGDTVTITCRASQGVSRWLAWYQQKPGKAPRLLIYAASSLHSGVPSRFSGSGSGTHFTLTISSLQPEDFATYFCQQSYSTPFTFGPGTKLEIK
notes: Fab made in E. coli TG1 and purified on Ni-NTA
Kd [1]: 5.29 nM
koff [1]: 0.00227 s⁻¹
Kd [2]: 5.35 nM
koff [2]: 0.00257 s⁻¹
kon [2]: 481000 M⁻¹ s⁻¹
kon [3]: 429000 M⁻¹ s⁻¹
